Results as given in article PMC10397247.

What was measured:
[1] = biological target: T1, AP4-AA; experiment: two-hybrid library CCmax;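 also: natural log of median RNA to DNA barcode read ratio; higher means stronger binding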
T1 chain: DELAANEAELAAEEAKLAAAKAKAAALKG

[2] = biological target: T2, AP5-AA; experiment: two-hybrid library CCmax; conditions: mean of both orientations;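 also: natural log of median RNA to DNA barcode read ratio; higher means stronger binding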
T2 chain: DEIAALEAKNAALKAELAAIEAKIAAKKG

[3] = biological target: T3, AP6-AA; experiment: two-hybrid library CCmax; conditions: mean of both orientations;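 also: natural log of median RNA to DNA barcode read ratio; higher means stronger binding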
T3 chain: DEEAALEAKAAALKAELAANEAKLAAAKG

[4] = biological target: T4, AP7-AA; experiment: two-hybrid library CCmax; conditions: mean of both orientations;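 also: natural log of median RNA to DNA barcode read ratio; higher means stronger binding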
T4 chain: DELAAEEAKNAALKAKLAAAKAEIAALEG

[5] = biological target: T5, AP8-AA; experiment: two-hybrid library CCmax; conditions: mean of both orientations;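 also: natural log of median RNA to DNA barcode read ratio; higher means stronger binding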
T5 chain: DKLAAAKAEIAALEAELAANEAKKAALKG

[6] = biological target: GCN2_T; experiment: two-hybrid library CCmax;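 also: natural log of median RNA to DNA barcode read ratio; higher means stronger binding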
[7] = biological target: T6, P1-AA; experiment: two-hybrid library CCmax; conditions: mean of both orientations
T6 chain: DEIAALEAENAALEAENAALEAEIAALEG

[8] = biological target: T7, P10-AA; experiment: two-hybrid library CCmax; conditions: mean of both orientations
T7 chain: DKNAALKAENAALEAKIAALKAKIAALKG

[9] = biological target: T8, P11-AA; experiment: two-hybrid library CCmax; conditions: mean of both orientations
T8 chain: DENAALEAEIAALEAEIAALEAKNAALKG

[10] = biological target: T9, P12-AA; experiment: two-hybrid library CCmax; conditions: mean of both orientations
T9 chain: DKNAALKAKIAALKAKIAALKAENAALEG

[11] = biological target: T10, P2-AA; experiment: two-hybrid library CCmax; conditions: mean of both orientations
T10 chain: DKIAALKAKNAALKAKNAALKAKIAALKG

[12] = biological target: T11, P3-AA; experiment: two-hybrid library CCmax; conditions: mean of both orientations
T11 chain: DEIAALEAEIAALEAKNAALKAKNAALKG

[13] = biological target: T12, P4-AA; experiment: two-hybrid library CCmax; conditions: mean of both orientations
T12 chain: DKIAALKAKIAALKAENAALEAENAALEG

[14] = biological target: T13, P7-AA; experiment: two-hybrid library CCmax; conditions: mean of both orientations
T13 chain: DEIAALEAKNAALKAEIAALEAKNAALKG

[15] = biological target: T14, P8-AA; experiment: two-hybrid library CCmax; conditions: mean of both orientations
T14 chain: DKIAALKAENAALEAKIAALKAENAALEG

[16] = biological target: T15, P9-AA; experiment: two-hybrid library CCmax; conditions: mean of both orientations
T15 chain: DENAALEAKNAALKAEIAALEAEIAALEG

[17] = biological target: T16, 4H3277-bH; experiment: two-hybrid library CCNG1
T16 chain: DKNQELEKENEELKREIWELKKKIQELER

[18] = biological target: T17, 4H3298-bH; experiment: two-hybrid library CCNG1
T17 chain: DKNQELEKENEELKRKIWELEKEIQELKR

[19] = biological target: T18, 4H3462-bH; experiment: two-hybrid library CCNG1
T18 chain: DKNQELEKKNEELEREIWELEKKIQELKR

[20] = biological target: T19, 4H348-bH; experiment: two-hybrid library CCNG1
T19 chain: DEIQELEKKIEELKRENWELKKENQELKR

[21] = biological target: T20, 4H3497-bH; experiment: two-hybrid library CCNG1
T20 chain: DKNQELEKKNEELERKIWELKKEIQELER

[22] = biological target: T21, 4H3613-bH; experiment: two-hybrid library CCNG1
T21 chain: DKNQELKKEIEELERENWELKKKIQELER

[23] = biological target: T22, 4H3628-bH; experiment: two-hybrid library CCNG1
T22 chain: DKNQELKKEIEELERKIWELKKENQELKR

[24] = biological target: T23, 4H3926-bH; experiment: two-hybrid library CCNG1
T23 chain: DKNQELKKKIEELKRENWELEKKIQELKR

[25] = biological target: T24, 4H40-bH; experiment: two-hybrid library CCNG1
T24 chain: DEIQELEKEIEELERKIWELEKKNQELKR

[26] = biological target: T25, 4H477-bH; experiment: two-hybrid library CCNG1
T25 chain: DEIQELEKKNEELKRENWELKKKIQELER

[27] = biological target: T26, 4H492-bH; experiment: two-hybrid library CCNG1
T26 chain: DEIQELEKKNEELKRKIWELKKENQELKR

[28] = biological target: T27, 4H591-bH; experiment: two-hybrid library CCNG1
T27 chain: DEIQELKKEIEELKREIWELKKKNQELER

[29] = biological target: T28, 4H626-bH; experiment: two-hybrid library CCNG1
T28 chain: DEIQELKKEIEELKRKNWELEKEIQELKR

[30] = biological target: T29, 4H741-bH; experiment: two-hybrid library CCNG1
T29 chain: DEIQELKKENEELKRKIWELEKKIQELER

[31] = biological target: T30, 4H906-bH; experiment: two-hybrid library CCNG1
T30 chain: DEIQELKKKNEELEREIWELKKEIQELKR

[32] = biological target: T31, 4H575-bA; experiment: two-hybrid library CCNG1
T31 chain: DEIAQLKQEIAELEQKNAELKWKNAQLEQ

[33] = biological target: T32, 4H2717-bH; experiment: two-hybrid library CCNG1
T32 chain: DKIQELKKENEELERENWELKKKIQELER

[34] = biological target: T33, 4H2839-bH; experiment: two-hybrid library CCNG1
T33 chain: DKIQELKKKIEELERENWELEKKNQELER

[35] = biological target: T34, 4H2915-bH; experiment: two-hybrid library CCNG1
T34 chain: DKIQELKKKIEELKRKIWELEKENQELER

[36] = biological target: T35, 4H3057-bH; experiment: two-hybrid library CCNG1
T35 chain: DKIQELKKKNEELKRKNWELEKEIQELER

[37] = biological target: T36, 4H319-bH; experiment: two-hybrid library CCNG1
T36 chain: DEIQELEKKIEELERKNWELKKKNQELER

[38] = biological target: T37, 4H189-AA; experiment: two-hybrid library CCmax
T37 chain: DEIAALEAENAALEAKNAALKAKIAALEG

[39] = biological target: T38, 4H2248-AA; experiment: two-hybrid library CCmax; conditions: mean of both orientations
T38 chain: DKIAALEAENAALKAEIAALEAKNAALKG

[40] = biological target: T39, 4H2283-AA; experiment: two-hybrid library CCmax; conditions: mean of both orientations
T39 chain: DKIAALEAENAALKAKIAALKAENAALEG

[41] = biological target: T40, 4H2713-AA; experiment: two-hybrid library CCmax; conditions: mean of both orientations
T40 chain: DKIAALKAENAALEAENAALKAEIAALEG

[42] = biological target: T41, 4H2742-AA; experiment: two-hybrid library CCmax; conditions: mean of both orientations
T41 chain: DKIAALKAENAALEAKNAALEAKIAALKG

[43] = biological target: T42, 4H2948-AA; experiment: two-hybrid library CCmax; conditions: mean of both orientations
T42 chain: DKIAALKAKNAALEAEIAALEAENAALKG

[44] = biological target: T43, 4H2991-AA; experiment: two-hybrid library CCmax; conditions: mean of both orientations
T43 chain: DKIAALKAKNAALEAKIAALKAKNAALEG

[45] = biological target: T44, 4H3029-AA; experiment: two-hybrid library CCmax; conditions: mean of both orientations
T44 chain: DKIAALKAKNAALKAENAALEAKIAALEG

[46] = biological target: T45, 4H3066-AA; experiment: two-hybrid library CCmax; conditions: mean of both orientations
T45 chain: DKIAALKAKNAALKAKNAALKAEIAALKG

[47] = biological target: T46, 4H3102-AA; experiment: two-hybrid library CCmax; conditions: mean of both orientations
T46 chain: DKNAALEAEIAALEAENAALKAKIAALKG

[48] = biological target: T47, 4H3121-AA; experiment: two-hybrid library CCmax; conditions: mean of both orientations
T47 chain: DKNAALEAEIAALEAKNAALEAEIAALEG

[49] = biological target: T48, 4H3417-AA; experiment: two-hybrid library CCmax; conditions: mean of both orientations
T48 chain: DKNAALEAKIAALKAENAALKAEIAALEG

[50] = biological target: T49, 4H3446-AA; experiment: two-hybrid library CCmax; conditions: mean of both orientations
T49 chain: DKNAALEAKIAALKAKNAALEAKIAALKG

[51] = biological target: T50, 4H3591-AA; experiment: two-hybrid library CCmax; conditions: mean of both orientations
T50 chain: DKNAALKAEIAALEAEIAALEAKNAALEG

[52] = biological target: T51, 4H3628-AA; experiment: two-hybrid library CCmax; conditions: mean of both orientations
T51 chain: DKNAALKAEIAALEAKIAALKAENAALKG

[53] = biological target: T52, 4H3666-AA; experiment: two-hybrid library CCmax; conditions: mean of both orientations
T52 chain: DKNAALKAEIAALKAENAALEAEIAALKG

[54] = biological target: T53, 4H3709-AA; experiment: two-hybrid library CCmax; conditions: mean of both orientations
T53 chain: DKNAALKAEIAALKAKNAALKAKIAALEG

[55] = biological target: T54, 4H391-AA; experiment: two-hybrid library CCmax; conditions: mean of both orientations
T54 chain: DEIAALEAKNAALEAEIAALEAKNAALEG

[56] = biological target: T55, 4H3920-AA; experiment: two-hybrid library CCmax; conditions: mean of both orientations
T55 chain: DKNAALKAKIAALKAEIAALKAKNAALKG

[57] = biological target: T56, 4H3939-AA; experiment: two-hybrid library CCmax
T56 chain: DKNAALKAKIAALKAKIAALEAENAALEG

[58] = biological target: T57, 4H428-AA; experiment: two-hybrid library CCmax; conditions: mean of both orientations
T57 chain: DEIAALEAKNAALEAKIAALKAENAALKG

[59] = biological target: T58, 4H478-AA; experiment: two-hybrid library CCmax; conditions: mean of both orientations
T58 chain: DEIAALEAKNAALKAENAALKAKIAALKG

[60] = biological target: T59, 4H497-AA; experiment: two-hybrid library CCmax; conditions: mean of both orientations
T59 chain: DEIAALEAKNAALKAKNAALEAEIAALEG

[61] = biological target: T60, 4H656-AA; experiment: two-hybrid library CCmax; conditions: mean of both orientations
T60 chain: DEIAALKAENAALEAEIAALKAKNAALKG

[62] = biological target: T61, 4H675-AA; experiment: two-hybrid library CCmax; conditions: mean of both orientations
T61 chain: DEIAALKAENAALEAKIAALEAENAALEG

[63] = biological target: T62, 4H971-AA; experiment: two-hybrid library CCmax; conditions: mean of both orientations
T62 chain: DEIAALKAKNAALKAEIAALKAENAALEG

DELAANEAELAAEEAKLAAAKAKAAALKG [AP4-AA]
interaction score [1]: -1.46
interaction score [2]: -1.51
interaction score [3]: -2.03
interaction score [4]: -1.78
interaction score [5]: -1.25
interaction score [6]: -1.55
interaction score [7]: -1.34
interaction score [8]: -1.25
interaction score [9]: -0.858
interaction score [10]: -1.45
interaction score [11]: -1.78
interaction score [12]: -1.14
interaction score [13]: -1.48
interaction score [14]: -1.82
interaction score [15]: -1.15
interaction score [16]: -1.6

DKNQELEKENEELKREIWELKKKIQELER [4H3277-bH]
interaction score [17]: 1.3
interaction score [18]: -0.709
interaction score [19]: 0.203
interaction score [20]: 0.219
interaction score [21]: -0.711
interaction score [22]: -0.0624
interaction score [23]: -1.48
interaction score [24]: -0.167
interaction score [25]: 0.141
interaction score [26]: 0.256
interaction score [27]: -0.305
interaction score [28]: 0.0179
interaction score [29]: -1.06
interaction score [30]: -2.8
interaction score [31]: -0.423

DKNQELEKENEELKRKIWELEKEIQELKR [4H3298-bH]
interaction score [18]: 1.66
interaction score [19]: 0.573
interaction score [21]: -0.424
interaction score [22]: -1.68
interaction score [23]: 0.519
interaction score [24]: -0.215
interaction score [32]: -1.29
interaction score [28]: -1.21
interaction score [29]: -0.173
interaction score [31]: -0.397

DKIQELKKENEELERENWELKKKIQELER [4H2717-bH]
interaction score [33]: 1.16
interaction score [34]: -0.51
interaction score [35]: -0.399
interaction score [36]: -0.185
interaction score [37]: -0.701
interaction score [17]: -0.479
interaction score [20]: -0.364
interaction score [25]: -0.815
interaction score [26]: 1.38
interaction score [27]: -0.752
interaction score [30]: -1.79

DEIAALEAENAALEAKNAALKAKIAALEG [4H189-AA]
interaction score [38]: -1.25
interaction score [39]: -1.26
interaction score [40]: -1.71
interaction score [41]: 1.05
interaction score [42]: 1.11
interaction score [43]: -1.02
interaction score [44]: -1.76
interaction score [45]: 2.05
interaction score [46]: 1.07
interaction score [47]: -1.74
interaction score [48]: -1.84
interaction score [49]: -1.19
interaction score [50]: -1.07
interaction score [51]: -0.919
interaction score [52]: -1.64
interaction score [53]: -0.914
interaction score [54]: -1.23
interaction score [55]: -1.47
interaction score [56]: -1.97
interaction score [57]: -1.4
interaction score [58]: -1.92
interaction score [59]: 1.85
interaction score [60]: 0.26
interaction score [61]: -0.83
interaction score [62]: -1.31
interaction score [63]: -1.52
